# Entries after “also recorded” stand apart in the source; their conditions may differ.
# T1: gp32 His-tagged;Dda-K38A (bacteriophage T4;bacteriophage T4, UniProt P03695;P32270 1-301;1-439, |K38A)
# T1 sequence 1: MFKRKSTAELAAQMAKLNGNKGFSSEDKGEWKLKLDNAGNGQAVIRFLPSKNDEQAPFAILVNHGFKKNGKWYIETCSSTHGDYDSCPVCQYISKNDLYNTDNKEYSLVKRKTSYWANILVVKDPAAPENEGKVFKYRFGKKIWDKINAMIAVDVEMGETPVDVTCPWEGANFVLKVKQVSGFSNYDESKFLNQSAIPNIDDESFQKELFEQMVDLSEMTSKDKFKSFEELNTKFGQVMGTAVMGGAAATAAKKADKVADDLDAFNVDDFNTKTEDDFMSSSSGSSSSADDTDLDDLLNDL
# T1 sequence 2: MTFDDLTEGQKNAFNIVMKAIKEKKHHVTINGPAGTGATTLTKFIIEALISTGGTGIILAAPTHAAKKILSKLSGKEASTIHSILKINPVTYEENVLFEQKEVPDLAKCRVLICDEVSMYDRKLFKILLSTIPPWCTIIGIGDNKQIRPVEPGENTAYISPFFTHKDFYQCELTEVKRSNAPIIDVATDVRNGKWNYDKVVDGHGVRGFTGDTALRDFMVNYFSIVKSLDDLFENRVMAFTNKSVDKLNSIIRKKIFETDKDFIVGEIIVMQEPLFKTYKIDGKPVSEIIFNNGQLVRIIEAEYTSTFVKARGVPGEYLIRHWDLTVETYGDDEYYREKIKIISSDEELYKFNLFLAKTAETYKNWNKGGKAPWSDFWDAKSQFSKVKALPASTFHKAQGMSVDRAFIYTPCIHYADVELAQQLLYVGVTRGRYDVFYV
# T2: gp32 non-His-tagged;Dda-K38A (bacteriophage T4;bacteriophage T4, UniProt P03695;P32270 1-301;1-439, |K38A)
# T2 sequence 1: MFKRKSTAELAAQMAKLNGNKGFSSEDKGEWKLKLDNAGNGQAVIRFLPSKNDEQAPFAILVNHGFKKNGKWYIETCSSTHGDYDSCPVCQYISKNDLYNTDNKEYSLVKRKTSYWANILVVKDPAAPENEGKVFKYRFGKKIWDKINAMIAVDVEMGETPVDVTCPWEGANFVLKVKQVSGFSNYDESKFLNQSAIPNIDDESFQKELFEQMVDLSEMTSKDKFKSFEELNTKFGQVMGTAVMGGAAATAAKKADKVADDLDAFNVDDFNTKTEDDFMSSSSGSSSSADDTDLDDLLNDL
# T2 sequence 2: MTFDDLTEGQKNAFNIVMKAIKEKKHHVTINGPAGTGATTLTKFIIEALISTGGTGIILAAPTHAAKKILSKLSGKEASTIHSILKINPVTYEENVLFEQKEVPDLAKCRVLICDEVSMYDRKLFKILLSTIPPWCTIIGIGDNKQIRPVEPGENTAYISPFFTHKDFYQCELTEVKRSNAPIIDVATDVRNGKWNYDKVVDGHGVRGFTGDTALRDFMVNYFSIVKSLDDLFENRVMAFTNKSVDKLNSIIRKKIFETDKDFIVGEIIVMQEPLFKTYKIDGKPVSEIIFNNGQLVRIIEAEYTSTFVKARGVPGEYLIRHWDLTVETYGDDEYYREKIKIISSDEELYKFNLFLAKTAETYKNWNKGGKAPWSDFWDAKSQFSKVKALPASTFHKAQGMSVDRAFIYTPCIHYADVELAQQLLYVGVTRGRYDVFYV
# T3: gp32 C-terminal peptide 248-270;Dda-K38A (bacteriophage T4;bacteriophage T4, UniProt P03695;P32270 248-270;1-439, |K38A)
# T3 sequence 1: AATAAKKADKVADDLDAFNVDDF
# T3 sequence 2: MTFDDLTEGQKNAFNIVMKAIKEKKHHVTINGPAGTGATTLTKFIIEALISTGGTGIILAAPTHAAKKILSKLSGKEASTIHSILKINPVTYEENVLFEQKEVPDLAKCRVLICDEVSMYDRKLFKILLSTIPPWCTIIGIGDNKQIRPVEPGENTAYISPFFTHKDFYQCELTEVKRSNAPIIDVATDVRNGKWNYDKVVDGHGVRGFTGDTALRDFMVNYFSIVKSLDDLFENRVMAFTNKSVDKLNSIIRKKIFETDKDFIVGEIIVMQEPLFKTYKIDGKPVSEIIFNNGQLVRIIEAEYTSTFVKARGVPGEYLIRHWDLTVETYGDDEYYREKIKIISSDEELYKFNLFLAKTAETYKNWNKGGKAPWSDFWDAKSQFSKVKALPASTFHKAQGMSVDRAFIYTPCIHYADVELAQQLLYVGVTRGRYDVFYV
# Columns and labels:
# Dda-K38A/dT20 = target: T4, Dda-K38A/dT20 (Enterobacteria phage T4, UniProt P32270, K38A); format: binding, bacteriophage T4; conditions: SPR analysis 1, peptides up to 100 μM, 25°C
# T4 construct: made in house
# Description: These experiments were conducted at 25°C using a Biacore 3000 optical biosensor (Cytiva). […] The chip was primed in chelating buffer (10 mM HEPES pH 7.4, 150 mM NaCl, 50 μM EDTA, 0.005% Tween20) and was preconditioned at 10 μl/min with three 60 s injections of wash buffer (10 mM HEPES pH 8.3, 150 mM NaCl, 350 mM EDTA, 0.05% Tween20) and one 60 s injection of chelating buffer before being charged with a 60 s injection of 500 μM NiCl2 in chelating buffer. […] Any remaining active sites were blocked by Tris molecules in the binding analysis buffer (20 mM Tris-acetate pH 8.0, 150 mM NaCl, 10 mM magnesium acetate, 3 mM potassium glutamate, 1 mM TCEP, 0.05% Tween20, 10% glycerol). One flow cell on the chip was charged with Ni^2+ and activated with EDC/NHS without adding protein to be used as a reference cell. gp32 C-terminal peptides were prepared in binding analysis buffer as a 4-fold dilution series at maximum concentration 100 μM for screening and were injected at a flow rate of 75 μl/min. […] The data were processed, double-referenced and analyzed using the software package Scrubber2 (version 2.0c, BioLogic Software). The equilibrium dissociation constants (KD) were determined using steady-state analysis, specifically an equilibrium affinity analysis to fit the data to a 1:1 (Langmuir) interaction model.
# gp32 His-tagged;Dda-K38A [1] = target: T1, gp32 His-tagged;Dda-K38A; assay: gel filtration; 50 mM NaCl; purified complex crystallized; EMSA: 25 mM HEPES pH 7.5, 5 mM MgCl2, 0.1 mM EDTA, 2 mM 2-mercaptoethanol, 1 mg/ml BSA, 5% glycerol, 10 or 150 mM NaCl, room temperature (gel 4 C); gel filtration: 20 mM Tris-HCl pH 7.0, 200 mM NaCl (50 mM for crystallization), 0.5 mM EDTA, 5 mM 2-mercaptoethanol; conditions: protein: recombinant;recombinant; tags: N-terminal 6xHis;6xHis (stated for SPR); copies: 1;1; single strand
# gp32 His-tagged;Dda-K38A [2] = target: T1, gp32 His-tagged;Dda-K38A; assay: gel filtration; complex stably formed; EMSA: 25 mM HEPES pH 7.5, 5 mM MgCl2, 0.1 mM EDTA, 2 mM 2-mercaptoethanol, 1 mg/ml BSA, 5% glycerol, 10 or 150 mM NaCl, room temperature (gel 4 C); gel filtration: 20 mM Tris-HCl pH 7.0, 200 mM NaCl (50 mM for crystallization), 0.5 mM EDTA, 5 mM 2-mercaptoethanol; conditions: protein: recombinant;recombinant; tags: N-terminal 6xHis;6xHis (stated for SPR); copies: 1;1; single strand
# gp32 His-tagged;Dda-K38A [3] = target: T1, gp32 His-tagged;Dda-K38A; assay: crystal structure; Zn2+; 6 A crystals, Zn SAD; EMSA: 25 mM HEPES pH 7.5, 5 mM MgCl2, 0.1 mM EDTA, 2 mM 2-mercaptoethanol, 1 mg/ml BSA, 5% glycerol, 10 or 150 mM NaCl, room temperature (gel 4 C); gel filtration: 20 mM Tris-HCl pH 7.0, 200 mM NaCl (50 mM for crystallization), 0.5 mM EDTA, 5 mM 2-mercaptoethanol; conditions: protein: recombinant;recombinant; tags: N-terminal 6xHis;6xHis (stated for SPR); copies: 1;1; single strand
# [4] = target: T2, gp32 non-His-tagged;Dda-K38A; assay: crystal structure; Zn2+; 4.98 A; 11 nt visible in one complex, 9 nt (Dda only) in the other; EMSA: 25 mM HEPES pH 7.5, 5 mM MgCl2, 0.1 mM EDTA, 2 mM 2-mercaptoethanol, 1 mg/ml BSA, 5% glycerol, 10 or 150 mM NaCl, room temperature (gel 4 C); gel filtration: 20 mM Tris-HCl pH 7.0, 200 mM NaCl (50 mM for crystallization), 0.5 mM EDTA, 5 mM 2-mercaptoethanol; conditions: protein: recombinant;recombinant; tags: none;6xHis (stated for SPR); copies: 1;1; single strand
# gp32 His-tagged;Dda-K38A [5] = target: T1, gp32 His-tagged;Dda-K38A; assay: gel filtration, SDS-PAGE and agarose gel; 200 mM NaCl; EMSA: 25 mM HEPES pH 7.5, 5 mM MgCl2, 0.1 mM EDTA, 2 mM 2-mercaptoethanol, 1 mg/ml BSA, 5% glycerol, 10 or 150 mM NaCl, room temperature (gel 4 C); gel filtration: 20 mM Tris-HCl pH 7.0, 200 mM NaCl (50 mM for crystallization), 0.5 mM EDTA, 5 mM 2-mercaptoethanol; conditions: protein: recombinant;recombinant; tags: N-terminal 6xHis;6xHis (stated for SPR); copies: 1;1; single strand
# [6] = target: T3, gp32 C-terminal peptide 248-270;Dda-K38A; assay: crystal structure; 3.53 A; peptide contacts Dda; EMSA: 25 mM HEPES pH 7.5, 5 mM MgCl2, 0.1 mM EDTA, 2 mM 2-mercaptoethanol, 1 mg/ml BSA, 5% glycerol, 10 or 150 mM NaCl, room temperature (gel 4 C); gel filtration: 20 mM Tris-HCl pH 7.0, 200 mM NaCl (50 mM for crystallization), 0.5 mM EDTA, 5 mM 2-mercaptoethanol; conditions: tags: ;6xHis (stated for SPR); copies: 1;1; single strand
molecule,measurement,setting,value
240–253: synthetic peptide of gp32 C-terminus residues 240–253 (GTAVMGGAAATAAK),Binding to Dda-K38A/dT20 (in words),Dda-K38A/dT20,failed to bind; also recorded: showed no binding
TTTTTTTTTTTTTTTTTT (ssDNA) [dT18],binding result,gp32 His-tagged;Dda-K38A [1],binds
TTTTTTTTTTTTTTTT (ssDNA) [dT16],binding result,gp32 His-tagged;Dda-K38A [2],binds
TTTTTTTTTTTTTTTTT (ssDNA) [dT17],binding result,gp32 His-tagged;Dda-K38A [3],binds
same,binding result,[4],binds
TTTTTTTTTTTTTTTTTTTT (ssDNA) [dT20],binding result,gp32 His-tagged;Dda-K38A [5],binds
TTTTTTTT (ssDNA) [dT8],binding result,[6],binds

# From PMC11551737, “Structural and functional insights into the interaction between the bacteriophage T4 DNA processing proteins gp32 and Dda” (Nucleic Acids Research, 2024)
